Test results: patent US20050153896A1 (published 2005)
Ends that are not written are not given here.

B1: ~55 kDa laminin fragment obtained by elastase digestion of EHS mouse laminin (other, UniProt P19137 2690-3083, looked up)
chain: HREHGELPPEPPTLPQPELCAVDTAPGYVAGAHQFGLSQNSHLVLPLNQSDVRKRLQVQLSIRTFASSGLIYYVAHQNQMDYATLQLQEGRLHFMFDLGKGRTKVSHPALLSDGKWHTVKTEYIKRKAFMTVDGQESPSVTVVGNATTLDVERKLYLGGLPSHYRARNIGTITHSIPACIGEIMVNGQQLDKDRPLSASAVDRCYVVAQEGTFFEGSGYAALVKEGYKVRLDLNITLEFRTTSKNGVLLGISSAKVDAIGLEIVDGKVLFHVNNGAGRITATYQPRAARALCDGKWHTLQAHKSKHRIVLTVDGNSVRAESPHTHSTSADTNDPIYVGGYPAHIKQNCLSSRASFRGCVRNLRLSRGSQVQSLDLSRAFDLQGVFPHSCPGPEP
notes: domain: C-terminal globular domains of the laminin A1 chain; also called ~55 kilodalton laminin fragment; ~55 kDa fragment of laminin
B2: AG73 peptide (laminin alpha-1 chain globular domain-derived peptide) (peptide)
peptide: RKRLQVQLSIRT-NH2

How the values were obtained:
[1] = molecular target: T1, Aβ 1-40 (beta-amyloid protein 1-40); experiment: solid phase binding immunoassay; ~55 kDa laminin fragment immobilized on microtiter plates, increasing concentrations of Aβ (1-40)
T1 construct: Bought from Bachem; Residues 1-40 are counted on Aβ itself; also called Alzheimer's Aβ

[2] = molecular target: Aβ (beta-amyloid protein, length not stated at the place); experiment: cell-based or functional assay
[3] = molecular target: Aβ 1-42 (beta-amyloid protein 1-42), pre-formed fibrils; experiment: cell-based or functional assay

Binder	Kd [1] [nM]	inhibition of Aβ fibril formation, Aβ:peptide molar ratio 1:1 [2] [%]	disruption of pre-formed Aβ 1-42 fibrils (Thioflavin T fluorometry), Aβ:peptide molar ratio 1:10 [3] [%]
B1	2	–	–
B2	–	50	81
